Experimental findings from article PMC4971460 are described below.

As a reminder, the stoichiometry N is the number of molecules, sites or subunits per partner or assembly.

The test deals with MBP-GS fusion construct Δ2 (not stated | E. coli) [MBP: P0AEX9]. Kind of test: cryo-EM structure.

For “MBP-GS fusion construct Δ2 (from UniProt P0AEX9 27-396; P0A9C5 3-469)”, the stoichiometry N worked out at 12.
